Test results from publication PMC7086397.

Biological target: actin filament (UniProt P68135)
Assay: fluorescence microscopy in a microfluidics chamber

Substance: fascin (from UniProt Q16658 1-493) (natural protein)
- Kd: 75 nM
